We go through 1 molecule from PMC7883056 (The EMBO Journal, 2021).

This experiment has as its target T1, N-GST-tagged Ythdf (full length) (Drosophila melanogaster, UniProt Q9VBZ5 1-700).
T1 sequence: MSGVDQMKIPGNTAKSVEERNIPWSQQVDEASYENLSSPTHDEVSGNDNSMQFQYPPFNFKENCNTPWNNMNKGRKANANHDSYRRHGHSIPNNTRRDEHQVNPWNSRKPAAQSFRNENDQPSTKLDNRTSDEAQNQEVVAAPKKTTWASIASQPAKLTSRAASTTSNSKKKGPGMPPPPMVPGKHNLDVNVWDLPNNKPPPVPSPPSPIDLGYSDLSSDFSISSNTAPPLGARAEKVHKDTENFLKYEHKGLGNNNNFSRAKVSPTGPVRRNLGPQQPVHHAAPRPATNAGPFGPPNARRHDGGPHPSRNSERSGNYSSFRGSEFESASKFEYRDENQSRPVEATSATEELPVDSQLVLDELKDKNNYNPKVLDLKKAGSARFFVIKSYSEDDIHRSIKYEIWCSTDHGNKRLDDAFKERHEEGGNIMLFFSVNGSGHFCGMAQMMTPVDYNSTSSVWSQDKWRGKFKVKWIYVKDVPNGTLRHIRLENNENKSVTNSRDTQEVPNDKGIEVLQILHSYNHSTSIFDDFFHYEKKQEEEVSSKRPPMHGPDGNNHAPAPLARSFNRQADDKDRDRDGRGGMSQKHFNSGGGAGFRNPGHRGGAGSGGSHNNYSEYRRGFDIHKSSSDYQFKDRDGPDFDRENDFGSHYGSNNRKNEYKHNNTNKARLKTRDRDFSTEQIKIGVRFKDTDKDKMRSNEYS
Put plainly: pull-down.

B1: N-His6-tagged NT-Fmr1 (220-684) (domain or fragment)
chain: not shown
On to B1, for which the binding result is reported as “binds”.
